The text below walks through data of publication PMC11137577, “Unusual OB-fold protein PrgE and its role in conjugation”.

Data set [1] addresses PrgE (Enterococcus faecalis (plasmid pCF10)). The data set is described as follows: SEC-MALS; 60 μM PrgE, Superdex 200 Increase 10/300 GL, 20 mM Hepes pH 7.5, 300 mM NaCl. Background: SEC sorts molecules by how far they enter the pores of the column.
The target of another data set is ΔN-PrgE (Enterococcus faecalis (plasmid pCF10), UniProt D1LHE9 13-144, del1-12). Kind of data set: fluorescence anisotropy; 50 mM NaCl; 20 mM Hepes pH 7.5, 50 or 100 mM NaCl, 10 nM FITC-DNA, 0-20 uM protein, 30 min at RT. The conditions noted are these: protein: recombinant, tags: C-terminal 10xHis removed with 3C (PreScission) protease. For orientation: Polarisation of emitted light reports the rotation of a fluorescent probe.

Data set [2] deals with T1, PrgE WT (Enterococcus faecalis (plasmid pCF10), UniProt D1LHE9 1-144).
T1 sequence: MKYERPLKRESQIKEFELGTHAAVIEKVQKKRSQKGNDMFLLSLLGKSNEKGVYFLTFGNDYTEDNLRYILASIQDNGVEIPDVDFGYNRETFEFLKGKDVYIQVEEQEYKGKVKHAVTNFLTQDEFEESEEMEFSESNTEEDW
The data set is described as follows: fluorescence anisotropy; 50 mM NaCl; quadratic fit (Hill coefficient ca 1.5 in Hill fit); 20 mM Hepes pH 7.5, 50 or 100 mM NaCl, 10 nM FITC-DNA, 0-20 uM protein, 30 min at RT. Particulars: protein: recombinant; tags: C-terminal 10xHis removed with 3C (PreScission) protease; chain copies: 3; label: 5' FITC; single strand.

The target of data set [3] is T1, PrgE WT. The data set is described as follows: fluorescence anisotropy; 100 mM NaCl; 20 mM Hepes pH 7.5, 50 or 100 mM NaCl, 10 nM FITC-DNA, 0-20 uM protein, 30 min at RT. The conditions noted are these: protein: recombinant, tags: C-terminal 10xHis removed with 3C (PreScission) protease, chain copies: 3.
Data set [4] concerns the target T1, PrgE WT. The data set is described as follows: fluorescence anisotropy; 50 mM NaCl; 20 mM Hepes pH 7.5, 50 or 100 mM NaCl, 10 nM FITC-DNA, 0-20 uM protein, 30 min at RT. The conditions noted are these: protein: recombinant, tags: C-terminal 10xHis removed with 3C (PreScission) protease, chain copies: 3.
Data set [5] concerns the target T1, PrgE WT. Kind of data set: X-ray crystal structure; 15% PEG 400, 50 mM MES pH 6.5, 80 mM Mg acetate, 15 mM MgCl2; 5 nt per subunit; 20 mM Hepes pH 7.5, 50 or 100 mM NaCl, 10 nM FITC-DNA, 0-20 uM protein, 30 min at RT. Particulars: protein: recombinant; tags: C-terminal 10xHis removed with 3C (PreScission) protease; chain copies: 3; single strand.
The mark [6] stands for this setting: label: 5' FITC on strand 1, blunt.

Usually stoichiometry N stands for a count of units in the complex or per binding partner. On to PrgE (natural protein), for which the stoichiometry N in data set [1] is 3.

B1: 60-mer ssDNA (ssDNA)
DNA: CAGTGACAGTCTCCACGGTGAAGCAGTCGTACCTCTTGACGCATGAATAGATATATGTTA
As a reminder, the Kd is the concentration at which binding is half-saturated. For the molecule B1, the Kd in the data set with ΔN-PrgE (label: 5' FITC, single strand) came to 4.49 ± 0.48 µM; in the data set with PrgE WT [2], 330 ± 20 nM; with PrgE WT [3] (label: 5' FITC, single strand), 370 ± 10 nM.

B2: 60-mer dsDNA (dsDNA)
DNA 1: B1 DNA
DNA 2: TAACATATATCTATTCATGCGTCAAGAGGTACGACTGCTTCACCGTGGAGACTGTCACTG
As for B2, the Kd with PrgE WT [4] (setting [6]) came out at 500 ± 140 nM; with ΔN-PrgE (setting [6]), 5.56 ± 0.19 µM; in the data set with PrgE WT [3] (setting [6]) it was 950 ± 30 nM.

B3: 30-mer ssDNA (ssDNA)
DNA: CAGTGACAGTCTCCACGGTGAAGCAGTCGT
Turning to B3, the Kd in the data set with PrgE WT [4] (label: 5' FITC, single strand) was determined as 1020 ± 20 nM; in the data set with ΔN-PrgE (label: 5' FITC, single strand) it was 3.85 ± 0.49 µM; in the data set with PrgE WT [3] (label: 5' FITC, single strand), 1840 ± 150 nM.

B4: Poly-A 60-mer (ssDNA)
DNA: AAAAAAAAAAAAAAAAAAAAAAAAAAAAAAAAAAAAAAAAAAAAAAAAAAAAAAAAAAAA
As to B4, in the data set with PrgE WT [5], the binding result is on record as “binds”.

B5: 30-mer dsDNA (dsDNA)
DNA 1: B3 DNA
DNA 2: ACGACTGCTTCACCGTGGAGACTGTCACTG
Take B5: the results for the Kd in the data set with PrgE WT [4] (setting [6]), with ΔN-PrgE (setting [6]) and with PrgE WT [3] (setting [6]) were 1960 ± 260 nM, 4.39 ± 0.24 µM and 3360 ± 280 nM, respectively.
